Laboratory results reported in PMC12077085, “Structural elements of cyanobacterial co-factor-independent phosphoglycerate mutase that mediate regulation by PirC” (mBio, 2025).

How the values were obtained:
[1] = molecular target: T1, iPGAM (Slr1945), strep-iPGAM, iPGAM-WT (Synechocystis sp. PCC 6803, UniProt P74507, INS467TKKGI/DEL468-484, form not given); test: coupled enolase / pyruvate kinase / LDH assay, NADH decrease at […] nm; format: biochemical; conditions: 50 µM MnCl2; without PirC
T1 construct: gene gpmI; N-terminal strep-tag; expressed in E. coli Lemo21(DE3), Strep-Tactin purified; calculated 60 kDa; monomer by mass photometry

[2] = molecular target: T2, iPGAM (Slr1945), strep-iPGAM, iPGAM-WT (Synechocystis sp. PCC 6803, UniProt P74507); test: as above; format: biochemical; conditions: 50 µM MnCl2; without PirC
T2 construct: gene gpmI; N-terminal strep-tag; expressed in E. coli Lemo21(DE3), Strep-Tactin purified; calculated 60 kDa; monomer by mass photometry

[3] = molecular target: strep-tagged iPGAM (2,3-bisphosphoglycerate-independent phosphoglycerate mutase, Slr1945) of Synechocystis sp. PCC 6803, wild type (Synechocystis sp. PCC 6803) (UniProt P74507)
[4] = molecular target: strep-tagged iPGAM-ΔCT (Synechocystis iPGAM with the C-terminal segment deleted) (Synechocystis sp. PCC 6803) (UniProt P74507)
[5] = molecular target: strep-tagged iPGAM-Δloop (Synechocystis iPGAM with the loop replaced by TKKGI) (Synechocystis sp. PCC 6803) (UniProt P74507)
[6] = molecular target: strep-tagged iPGAM-ΔloopΔCT (Synechocystis iPGAM with the loop replaced by TKKGI and the C-terminal segment deleted) (Synechocystis sp. PCC 6803) (UniProt P74507)
[7] = molecular target: strep-tagged PirC (Sll0944, PII-interacting regulator of carbon metabolism) (Synechocystis sp. PCC 6803) (UniProt P77971); test: mass photometry; Refeyn OneMP; strep-iPGAM and strep-PirC alone (iPGAM 10 nM) and mixed at an iPGAM-PirC ratio of 1:3
[8] = molecular target: strep-tagged iPGAM (2,3-bisphosphoglycerate-independent phosphoglycerate mutase, Slr1945) of Synechocystis sp. PCC 6803, wild type (Synechocystis sp. PCC 6803) (UniProt P74507); test: as above
[9] = molecular target: His-tagged PirC (Sll0944, PII-interacting regulator of carbon metabolism) (Synechocystis sp. PCC 6803) (UniProt P77971); test: BLI; Octet K2; His-tagged PirC immobilised on a Ni2+-NTA sensor, strep-iPGAM variants as analytes in various concentrations
[10] = substrate: O=C(O)[C@H](O)COP(=O)(O)O; test: purified protein; format: biochemical, Synechocystis sp. PCC 6803; conditions: 50 µM MnCl2; without PirC

Chain of His-tagged PirC (Sll0944, PII-interacting regulator of carbon metabolism) (Synechocystis sp. PCC 6803) (P77971 whole entry): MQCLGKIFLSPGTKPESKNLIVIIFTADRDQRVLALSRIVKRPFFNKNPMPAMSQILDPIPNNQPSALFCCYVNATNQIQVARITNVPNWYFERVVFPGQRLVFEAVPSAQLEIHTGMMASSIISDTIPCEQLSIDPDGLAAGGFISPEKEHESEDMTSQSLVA

O=C(O)[C@H](O)COP(=O)(O)O [3-PGA]
Km [1]: 547 ± 59 µM
Km [2]: 242 ± 19 µM

His-tagged PirC (Sll0944, PII-interacting regulator of carbon metabolism) (from UniProt P77971 1-164) (natural protein)
IC50 of PirC on iPGAM activity, coupled enzyme assay at 0.75 mM 3-PGA (50 to 1,600 nM PirC) [3]: 120 nM
IC50 of PirC on iPGAM activity, coupled enzyme assay at 0.75 mM 3-PGA (50 to 1,600 nM PirC) [4]: 1070 nM
IC50 of PirC on iPGAM activity, coupled enzyme assay at 0.75 mM 3-PGA (50 to 1,600 nM PirC) [5]: 217 nM
IC50 of PirC on iPGAM activity, coupled enzyme assay at 0.75 mM 3-PGA (50 to 1,600 nM PirC) [6]: 164 nM

strep-tagged PirC (Sll0944, PII-interacting regulator of carbon metabolism) (from UniProt P77971 1-164) (natural protein)
stoichiometry N [7]: 6
stoichiometry N (PirC monomers per iPGAM) [8]: 3

strep-tagged iPGAM-ΔCT (Synechocystis iPGAM with the C-terminal segment deleted) (from UniProt P74507 1-532) (enzyme)
Kd [9]: 114 nM

strep-tagged iPGAM-Δloop (Synechocystis iPGAM with the loop replaced by TKKGI) (from UniProt P74507 1-532) (enzyme)
Kd [9]: 203 nM

strep-tagged iPGAM-ΔloopΔCT (Synechocystis iPGAM with the loop replaced by TKKGI and the C-terminal segment deleted) (from UniProt P74507 1-532) (enzyme)
Kd [9]: 233 nM

B1: strep-tagged iPGAM (2,3-bisphosphoglycerate-independent phosphoglycerate mutase, Slr1945) of Synechocystis sp. PCC 6803, wild type (enzyme)
chain: MAEAPIAPVVLVILDGWGYRPDTRANAIAQANTPIMDSLIAAYPNTLVNTSGKDVGLPKGQMGNSEVGHLNLGAGRVVPQELVRISDAIEDGTFFDNQALIEVCQRVRDRRGKLHLIGLCSDGGVHSHIDHLLGLIDLAKLQGISQLCIHAITDGRDTPTNEGAHFVQQIQAHLEKIGLGRIVSVSGRYYALDRDRRWDRVEKAYRVMTEDGVGDGRSAAQVIKDYYASDITDEFIPPTRIGAGAIASGDGVIFYNFRPDRARQLCYALVNPSFDGFPRERIQPLDFVTFTQYDPALPVVVAFEPQNLNNILGEIISRQGMKQFRTAETEKYPHVTYFFNGGLEQPFAGEDRELIQSPMVSTYDKAPQMSAKAVTDAVCRAMEKGIYSLVVVNYANPDMVGHTGKLKEAIQAIETVDLNLGRLLASAAKVGGTVLITADHGNAEYMSDESGNPWTAHTTNPVPFILVEGEGRKIPGHGGEVKLREGGKLADIAPTILDILQLPVPAEMTGKTLIDQPLVEIKANRTPVNLSR
Kd [9]: 378 nM

B2: iPGAM (Slr1945), strep-iPGAM, iPGAM-WT (Synechocystis sp. PCC 6803 substr. Kazusa) (protein)
chain: MAEAPIAPVVLVILDGWGYRPDTRANAIAQANTPIMDSLIAAYPNTLVNTSGKDVGLPKGQMGNSEVGHLNLGAGRVVPQELVRISDAIEDGTFFDNQALIEVCQRVRDRRGKLHLIGLCSDGGVHSHIDHLLGLIDLAKLQGISQLCIHAITDGRDTPTNEGAHFVQQIQAHLEKIGLGRIVSVSGRYYALDRDRRWDRVEKAYRVMTEDGVGDGRSAAQVIKDYYASDITDEFIPPTRIGAGAIASGDGVIFYNFRPDRARQLCYALVNPSFDGFPRERIQPLDFVTFTQYDPALPVVVAFEPQNLNNILGEIISRQGMKQFRTAETEKYPHVTYFFNGGLEQPFAGEDRELIQSPMVSTYDKAPQMSAKAVTDAVCRAMEKGIYSLVVVNYANPDMVGHTGKLKEAIQAIETVDLNLGRLLASAAKVGGTVLITADHGNAEYMSDESGNPWTAHTTNPVPFILVEGEGRKIPGHGGEVKLREGGKLADIAPTILDILQLPVPAEMTGKTLIDQPLVEIKANRTPVNLSR
notes: N-terminal strep-tag; expressed in E. coli Lemo21(DE3), Strep-Tactin purified; calculated 60 kDa; monomer by mass photometry
Km [10]: 265 ± 13 µM
Vmax [10]: 18.6 µmol/min/mg
kcat [10]: 18.6 ± 0.3 s⁻¹
kcat/Km [10]: 70200 ± 3590 M⁻¹ s⁻¹

B3: iPGAM (Slr1945), strep-iPGAM, iPGAM-WT (Synechocystis sp. PCC 6803 substr. Kazusa; DEL468-484/INS467TKKGI) (protein)
chain: MAEAPIAPVVLVILDGWGYRPDTRANAIAQANTPIMDSLIAAYPNTLVNTSGKDVGLPKGQMGNSEVGHLNLGAGRVVPQELVRISDAIEDGTFFDNQALIEVCQRVRDRRGKLHLIGLCSDGGVHSHIDHLLGLIDLAKLQGISQLCIHAITDGRDTPTNEGAHFVQQIQAHLEKIGLGRIVSVSGRYYALDRDRRWDRVEKAYRVMTEDGVGDGRSAAQVIKDYYASDITDEFIPPTRIGAGAIASGDGVIFYNFRPDRARQLCYALVNPSFDGFPRERIQPLDFVTFTQYDPALPVVVAFEPQNLNNILGEIISRQGMKQFRTAETEKYPHVTYFFNGGLEQPFAGEDRELIQSPMVSTYDKAPQMSAKAVTDAVCRAMEKGIYSLVVVNYANPDMVGHTGKLKEAIQAIETVDLNLGRLLASAAKVGGTVLITADHGNAEYMSDESGNPWTAHTTNPVPFILVTKKGIEGGKLADIAPTILDILQLPVPAEMTGKTLIDQPLVEIKANRTPVNLSR
notes: as for B2
Km [10]: 1087 ± 141 µM
Vmax [10]: 6.86 µmol/min/mg
kcat [10]: 6.7 ± 0.4 s⁻¹
kcat/Km [10]: 6190 ± 874 M⁻¹ s⁻¹
